Reference: US20230348616A1 (MIE UNIVERSITY, published 2023)
Where a chain is given by its changes, count along the chain named.

Columns and labels:
Assay in all cases: flow cytometry on peptide-pulsed T2 cells, scFv 100 nM
1F = target: T1, 1F
T1 construct: also called HLA-A2 / point-mutant NY-ESO peptide 1F complex on T2 cells
Experimental: (§1) The resultant was washed two times in the AIM-V medium containing 20% FBS, the concentration thereof was adjusted to an adequate level with PBS containing 5% FBS, the LIVE/DEAD Fixable Dead Cell Stain Kit (Thermo Fisher Scientific) was added thereto, and the resultant was allowed to stand at 4° C. for 30 minutes. The cells were washed 2 times in PBS containing 5% FBS, the washed cells were divided into two groups, the cells in PBS containing 5% FBS were seeded on a 96-well U-bottom microplate at 10⁵ cells/well, and the plate was subjected to centrifugation, followed by removal of the supernatant. Anti-HLA/NY-ESO scFv diluted to 100 nM with PBS containing 5% FBS was added at 25 μl/well to one of the divided cells, and the resultant was allowed to stand at 4° C. for 30 minutes. The cells were washed 2 times in PBS containing 5% FBS, Penta-His Alexa Fluor488 (QIAGEN) diluted in PBS containing 5% FBS was added at 25 μl/well, and the resultant was allowed to stand at 4° C. for 30 minutes. The cells were washed 2 times in PBS containing 5% FBS, Anti-mouse-IgG Alexa Fluor488 (Thermo Fisher Scientific) diluted in PBS containing 5% FBS was added at 25 μl/well, and the resultant was allowed to stand at 4° C. for 30 minutes. The cells were washed 2 times in PBS containing 5% FBS, immobilized with Mildform 10 N (FUJIFILM Wako Pure Chemical Corporation) overnight, and resuspended in PBS containing 5% FBS. […] The cells were washed 2 times in PBS containing 5% FBS, immobilized with Mildform 10 N (FUJIFILM Wako Pure Chemical Corporation) overnight, and resuspended in PBS containing 5% FBS. The cell suspensions were subjected to detection using a flow cytometer (CantoII, Becton Dickinson). […] The standardized gMFI indicating the binding affinity of each scFv standardized with the amount of the HLA/peptide complex on the T2 cells was determined in accordance with the following equation.

2M = target: T2, 2M
T2 construct: also called HLA-A2 / point-mutant NY-ESO peptide 2M complex on T2 cells
Experimental: as §1

3A = target: T3, 3A
T3 construct: also called HLA-A2 / point-mutant NY-ESO peptide 3A complex on T2 cells
Experimental: as §1

4A = target: T4, 4A
T4 construct: also called HLA-A2 / point-mutant NY-ESO peptide 4A complex on T2 cells
Experimental: as §1

5A = target: T5, 5A
T5 construct: also called HLA-A2 / point-mutant NY-ESO peptide 5A complex on T2 cells
Experimental: as §1

6L = target: T6, 6L
T6 construct: also called HLA-A2 / point-mutant NY-ESO peptide 6L complex on T2 cells
Experimental: as §1

8A = target: T7, 8A
T7 construct: also called HLA-A2 / point-mutant NY-ESO peptide 8A complex on T2 cells
Experimental: as §1

9A = target: T8, 9A
T8 construct: also called HLA-A2 / point-mutant NY-ESO peptide 9A complex on T2 cells
Experimental: as §1

7F = target: T9, 7F
T9 construct: also called HLA-A2 / point-mutant NY-ESO peptide 7F complex on T2 cells
Experimental: as §1

B1: NYA-2048 (scFv)
scFv: GQVQLVESGGGVVQPGRSLRLSCAASGFSIRSYDMHWVRQAPGKGLEWVATISYDGSQKYYADSVKGRFTISRDNSKNTLYLQMSSLRAEDTAVYHCARGSSGHYEAFDIWGQGTLVTVSSGGGGSGGGGSGGGGSQSVLTQPPSASGTPGQRVTISCSGSSSNIGNWYVSWYQQLPGTAPKLLIYDNNKRPSGVPDRFSGSKSGTSASLAISGLQSEDEADYYCGTWDSSLSAPWVFGGGTKLTVLGAAAGAGGDYKDDDDKGAAAHHHHHH
notes: also called NYA-2048 tag adduct
standardized gMFI (1F): 0.51 | standardized gMFI (2M): 5.36 | standardized gMFI (3A): 4.2 | standardized gMFI (4A): 0.63 | standardized gMFI (5A): 0.67 | standardized gMFI (6L): 6.14 | standardized gMFI (8A): 4.11 | standardized gMFI (9A): 7.75

B2: NYA-1143 (scFv)
scFv: GEVQLVESGGGVVQPGRSLTPSCSASGFSIRSYDIHWVRLAPGKGLEWVATISYDGSQKYFADSVKGRFTIFRDESENMVYLQMSGLRVEDTAVYHCARGSSGHYEAFDIWGQGTMVTVSSGGGGSGGGGSGGGGSQSVLTQPPSVSAAPGQKVTISCSGSSSNIGNWYVSWYQQLPGTAPKLLIYDNNKRPSGIPDRFSGSKSGTSATLGITGLQTGDEADYYCGTWDSSLSAPWVFGGGTKVTVLGAAAGAGGDYKDDDDKGAAAHHHHHH
standardized gMFI (2M): 11.9 | standardized gMFI (3A): 10.2 | standardized gMFI (5A): 3.15 | standardized gMFI (6L): 12.9 | standardized gMFI (8A): 8.74 | standardized gMFI (9A): 15.1

B3: NYA-1163 (scFv)
scFv: B2 scFv with W168N
standardized gMFI (1F): 0.53 | standardized gMFI (4A): 0.57 | standardized gMFI (5A): 0.62 | standardized gMFI (8A): 6 | standardized gMFI (9A): 4.01

B4: NYA-2143 (scFv)
scFv: B2 scFv with Q175R
standardized gMFI (1F): 2.72 | standardized gMFI (2M): 13.2 | standardized gMFI (3A): 10.3 | standardized gMFI (4A): 7.19 | standardized gMFI (6L): 12.9 | standardized gMFI (8A): 9.69 | standardized gMFI (9A): 14.5

B5: NYA-1154 (scFv)
scFv: B2 scFv with I35M, L40Q, G103N, W168N, Q175R, T227A
standardized gMFI (2M): 9.49 | standardized gMFI (3A): 8 | standardized gMFI (4A): 6.63 | standardized gMFI (6L): 9.36 | standardized gMFI (7F): 6.08 | standardized gMFI (8A): 11.9 | standardized gMFI (9A): 11.2

B6: NYA-2035 (scFv)
scFv: B2 scFv with Y169K
standardized gMFI (1F): 0.6 | standardized gMFI (2M): 8.8 | standardized gMFI (3A): 5.81 | standardized gMFI (6L): 8.95 | standardized gMFI (7F): 5.83 | standardized gMFI (8A): 6.41 | standardized gMFI (9A): 11.5

B7: NYA-2023 (scFv)
scFv: B2 scFv with L40Q
standardized gMFI (1F): 0.72 | standardized gMFI (2M): 6.74 | standardized gMFI (3A): 4.92 | standardized gMFI (4A): 2.48 | standardized gMFI (6L): 7.51 | standardized gMFI (7F): 4.72 | standardized gMFI (8A): 5.4 | standardized gMFI (9A): 10.8

B8: NYC-0004 (scFv, not shown: small tags and cut ends)
scFv: EVQLLESGGGLVQPGGSLRLSCAASGFTFSTYQMSWVRQAPGKGLEWVSGIVSSGGSTAYADSVKGRFTISRDNSKNTLYLQMNSLRAEDTAVYYCAGELLPYYGMDVWGQGTTVTVSSGGGGSGGGGSGGGGSQSELTQPRSVSGSPGQSVTISCTGTERDVGGYNYVSWYQQHPGKAPKLIIHDVIERSSGVPDRFSGSKSGNTASLTISGLQAEDEADYYCWSFAGGYYVFGTGTDVTVL
notes: also called T1 scFv; NYC-0004 tag adduct
standardized gMFI (1F): 3.56 | standardized gMFI (2M): 5.66 | standardized gMFI (3A): 4.75 | standardized gMFI (5A): 0.65 | standardized gMFI (6L): 3.78 | standardized gMFI (7F): 5.07 | standardized gMFI (8A): 3.69 | standardized gMFI (9A): 7.99

B9: NYA-2044 (scFv)
scFv: GEVQLVESGGGLVQPGGSLRLSCAASGFSIRSYDIHWVRLAPGKGLEWVATISYDGSQKYYADSVKGRFTISRDESKNTLYLQMNSLRAEDTAVYHCARGSSGHYEAFDIWGQGTLVTVSSGGGGSGGGGSGGGGSQSVLTQPPSVSAAPGQKVTISCSGSSSNIGNWYVSWYQQLPGTAPKLLIYDNNKRPSGIPDRFSGSKSGTSATLGITGLQTGDEADYYCGTWDSSLSAPWVFGGGTKVTVLGAAAGAGGDYKDDDDKGAAAHHHHHH
notes: also called NYA-2044 tag adduct
standardized gMFI (1F): 0.68 | standardized gMFI (2M): 13.5 | standardized gMFI (3A): 10.9 | standardized gMFI (4A): 3.21 | standardized gMFI (6L): 13.4 | standardized gMFI (7F): 3.62 | standardized gMFI (8A): 10 | standardized gMFI (9A): 15.6

B10: NYA-2045 (scFv)
scFv: B1 scFv with Q2E, V12L, R17G, M35I, Q40L, N75E, S85N
notes: also called NYA-2045 tag adduct
standardized gMFI (1F): 0.53 | standardized gMFI (2M): 8.8 | standardized gMFI (3A): 7.46 | standardized gMFI (6L): 8.8 | standardized gMFI (7F): 1.99 | standardized gMFI (8A): 7.35 | standardized gMFI (9A): 9.98

B11: NYA-2047 (scFv)
scFv: B9 scFv with E2Q, L12V, G17R, I35M, L40Q, E75N, N85S
standardized gMFI (1F): 0.48 | standardized gMFI (2M): 7.34 | standardized gMFI (3A): 6.09 | standardized gMFI (4A): 0.86 | standardized gMFI (6L): 7.07 | standardized gMFI (8A): 6.61 | standardized gMFI (9A): 9.54
